Laboratory results published in PMC8050300, “The role of S-nitrosylation of PFKM in regulation of glycolysis in ovarian cancer cells” (Cell Death & Disease, 2021).
Several values for one entry are separate records, joined by “and”; a condition that tells them apart may be missing. Equal entries are not always repeated.

Biological target: the molecule itself
Assay: non-reducing SDS-PAGE with western blot; cell extracts separated by non-reducing SDS-PAGE, blot for PFKM tetramer, dimer and monomer; SKOV3 control and OE-NOS1 cells, SKOV3 and OVCAR3 cells with GSNO (1 mM, 30 min) or PBS, SKOV3-PFKM-KO cells (with or without OE-NOS1) reconstituted with Flag-PFKM-WT or C351S

B1: Phosphofructokinase (PFKM), endogenous (enzyme, human (endogenous in SKOV3 and OVCAR3), UniProt P08237-1 1-780, looked up)
chain: MTHEEHHAAKTLGIGKAIAVLTSGGDAQGMNAAVRAVVRVGIFTGARVFFVHEGYQGLVDGGDHIKEATWESVSMMLQLGGTVIGSARCKDFREREGRLRAAYNLVKRGITNLCVIGGDGSLTGADTFRSEWSDLLSDLQKAGKITDEEATKSSYLNIVGLVGSIDNDFCGTDMTIGTDSALHRIMEIVDAITTTAQSHQRTFVLEVMGRHCGYLALVTSLSCGADWVFIPECPPDDDWEEHLCRRLSETRTRGSRLNIIIVAEGAIDKNGKPITSEDIKNLVVKRLGYDTRVTVLGHVQRGGTPSAFDRILGSRMGVEAVMALLEGTPDTPACVVSLSGNQAVRLPLMECVQVTKDVTKAMDEKKFDEALKLRGRSFMNNWEVYKLLAHVRPPVSKSGSHTVAVMNVGAPAAGMNAAVRSTVRIGLIQGNRVLVVHDGFEGLAKGQIEEAGWSYVGGWTGQGGSKLGTKRTLPKKSFEQISANITKFNIQGLVIIGGFEAYTGGLELMEGRKQFDELCIPFVVIPATVSNNVPGSDFSVGADTALNTICTTCDRIKQSAAGTKRRVFIIETMGGYCGYLATMAGLAAGADAAYIFEEPFTIRDLQANVEHLVQKMKTTVKRGLVLRNEKCNENYTTDFIFNLYSEEGKGIFDSRKNVLGHMQQGGSPTPFDRNFATKMGAKAMNWMSGKIKESYRNGRIFANTPDSGCVLGMRKRALVFQPVAELKDQTDFEHRIPKEQWWLKLRPILKILAKYEIDLDTSDHAHLEHITRKRSGEAAV
notes: PFKM, muscle isoform of phosphofructokinase 1, human, endogenous in ovarian cancer cells; also called PFK1 (M isoform); source: endogenous, SKOV3 (control, OE-NOS1) and OVCAR3 cell lysate
- stoichiometry N: 4 and 2

B2: Flag-tagged WT human PFK1 (M isoform) (enzyme, UniProt P08237-1 1-780, looked up)
chain: MTHEEHHAAKTLGIGKAIAVLTSGGDAQGMNAAVRAVVRVGIFTGARVFFVHEGYQGLVDGGDHIKEATWESVSMMLQLGGTVIGSARCKDFREREGRLRAAYNLVKRGITNLCVIGGDGSLTGADTFRSEWSDLLSDLQKAGKITDEEATKSSYLNIVGLVGSIDNDFCGTDMTIGTDSALHRIMEIVDAITTTAQSHQRTFVLEVMGRHCGYLALVTSLSCGADWVFIPECPPDDDWEEHLCRRLSETRTRGSRLNIIIVAEGAIDKNGKPITSEDIKNLVVKRLGYDTRVTVLGHVQRGGTPSAFDRILGSRMGVEAVMALLEGTPDTPACVVSLSGNQAVRLPLMECVQVTKDVTKAMDEKKFDEALKLRGRSFMNNWEVYKLLAHVRPPVSKSGSHTVAVMNVGAPAAGMNAAVRSTVRIGLIQGNRVLVVHDGFEGLAKGQIEEAGWSYVGGWTGQGGSKLGTKRTLPKKSFEQISANITKFNIQGLVIIGGFEAYTGGLELMEGRKQFDELCIPFVVIPATVSNNVPGSDFSVGADTALNTICTTCDRIKQSAAGTKRRVFIIETMGGYCGYLATMAGLAAGADAAYIFEEPFTIRDLQANVEHLVQKMKTTVKRGLVLRNEKCNENYTTDFIFNLYSEEGKGIFDSRKNVLGHMQQGGSPTPFDRNFATKMGAKAMNWMSGKIKESYRNGRIFANTPDSGCVLGMRKRALVFQPVAELKDQTDFEHRIPKEQWWLKLRPILKILAKYEIDLDTSDHAHLEHITRKRSGEAAV
notes: human PFK1 (M isoform, PFKM) cDNA (ATCC, NCBI NP_000280.1) in the expression vector PCDNA3.1; the vector section is headed 'for ovarian cancer cells expression'; also called Flag-PFKM; Flag-PFKM-WT; source: SKOV3-PFKM-KO cells, transfected, in lysate
- stoichiometry N: 4 and 2
